Blank lines part the entries; values can stand above or below the molecule they belong to.
Legend:
[1] = molecular target: CD20 on living lymphoma cells (Raji, Rael, Daudi) (UniProt P11836); assay: immunoreactive fraction, modified Lindmo method on lymphoma cells; 1 experiment
[2] = molecular target: CD20 on living lymphoma cells (Raji, Rael, Daudi) (UniProt P11836); assay: immunoreactive fraction, modified Lindmo method on lymphoma cells; mean ± SD of 6 experiments
[3] = molecular target: CD20 on living lymphoma cells (Raji, Rael, Daudi) (UniProt P11836); assay: ^125I-labeled antibody on Rael cells, one-step curve fit of specific binding against time and concentration
[4] = molecular target: CD20 on living lymphoma cells (Raji, Rael, Daudi) (UniProt P11836); assay: ^125I-labeled antibody on Raji cells, one-step curve fit of specific binding against time and concentration
[5] = molecular target: T1, human CD37 on living lymphoma cells (Raji, Rael, Daudi) (human, UniProt P11049 1-281); assay: ^125I-labeled antibody on Rael cells, one-step curve fit of specific binding against time and concentration
T1 construct: whole, on cells; Target of HH1 and of the three bought anti-CD37 antibodies on cell lines; also called CD37 antigen
T1 sequence (looked up): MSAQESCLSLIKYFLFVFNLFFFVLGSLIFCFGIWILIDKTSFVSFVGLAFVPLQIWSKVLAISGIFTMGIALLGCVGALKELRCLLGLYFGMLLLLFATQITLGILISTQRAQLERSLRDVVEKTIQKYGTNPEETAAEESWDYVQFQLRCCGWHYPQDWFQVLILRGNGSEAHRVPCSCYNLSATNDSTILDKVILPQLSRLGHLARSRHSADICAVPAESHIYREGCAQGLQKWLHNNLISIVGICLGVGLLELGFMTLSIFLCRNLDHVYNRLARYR
Experimental: (§1) The association rate constant, kₐ, the equilibrium dissociation constant, Kd, and the mean number of binding sites, Bₘₐₓ, was determined by a one-step curve fitting method (Dahle et al. 2007). The binding parameters were measured for HH1 and rituximab and for three different lymphoma cell lines; Raji, Rael and Daudi cells (Table 2). Specific binding was measured as a function of time and antibody concentration, and the solution of the differential equation describing the net rate of formation of the antigen-antibody complex was fitted to the experimental data points using the association rate constant, kₐ, the equilibrium dissociation constant, Kd, and the mean number of binding sites, Bₘₐₓ, as parameters. Five million cells pr ml were used, four concentrations of ¹²⁵I-labeled antibody (100 ng/ml, 1000 ng/ml, 5000 ng/ml and 10000 ng/ml) and 7 incubation time points (5 min, 10 min, 20 min, 30 min, 1 h, 1.5 h and 2 h). After incubation, cells were washed twice with PBS, and then counted in a gamma counter.

[6] = molecular target: T1, human CD37 on living lymphoma cells …; assay: ^125I-labeled antibody on Raji cells, one-step curve fit of specific binding against time and concentration
Experimental: as §1

[7] = molecular target: T1, human CD37 on living lymphoma cells …; assay: ^125I-labeled antibody on Daudi cells, one-step curve fit of specific binding against time and concentration
Experimental: as §1

Sequence of CD20 on living lymphoma cells (Raji, Rael, Daudi) (P11836 whole entry): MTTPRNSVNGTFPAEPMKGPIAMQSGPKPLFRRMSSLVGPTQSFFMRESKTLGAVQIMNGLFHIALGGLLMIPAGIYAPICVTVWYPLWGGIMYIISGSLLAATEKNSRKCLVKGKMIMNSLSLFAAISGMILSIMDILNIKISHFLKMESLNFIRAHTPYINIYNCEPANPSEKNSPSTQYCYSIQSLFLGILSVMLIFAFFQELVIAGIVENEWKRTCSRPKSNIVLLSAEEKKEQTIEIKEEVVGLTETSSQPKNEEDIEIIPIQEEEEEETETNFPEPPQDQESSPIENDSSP

- IRF (%), mean [2]: 62%
- Bmax(Ag/cell) [3]: 626000 Ag/cell
- Kd [3]: 12 nM
- Bmax(Ag/cell) [4]: 272000 Ag/cell
- Kd [4]: 4.8 nM
Molecule: ^125I-rituximab (antibody)

- IRF (%) [1]: 60%
Molecule: ^177Lu-rituximab (antibody)

The remaining lines, values behind:

Molecule: ^111In-rituximab (antibody)
- IRF (%) [1]: 45%

B1: ^125I-labeled HH1 (antibody, V domains shown)
VH: EIQLQQSGPELVKPGASVKVSCKASGYSFTDYNMYWVKQSHGKSLEWIGYIDPYNGDTTYNQKFKGKATLTVDKSSSTAFIHLNSLTSEDSAVYYCARSPYGHYAMDYWGQGTSVTVSS
VL: DIVMTQSHKLLSTSVGDRVSITCKASQDVSTAVDWYQQKPGQSPKLLINWASTRHTGVPDRFTGSGSGTDYTLTISSMQAEDLALYYCRQHYSTPFTFGSGTKLEIK
modifications: ^125I by indirect iodination with IODOGEN tubes; chain and residues not stated
- Kd [5]: 12.7 nM
- Kd [6]: 6.3 nM
- Kd [7]: 2.7 nM

From US20140147384A1 (NORDIC NANOVECTOR, published 2014)
